Measurements as given in publication PMC12588282 (Science Advances, 2025).
Values joined by “and” are separate entries in the source; they are usually repeats but may differ in a detail not shown here. Equal entries are not always repeated.

Tests used:
[1] = molecular target: Fc region of the Xenopus laevis IgX heavy chain (Cχ2, Cχ3, Cχ4 and χtp) (Xenopus laevis); assay: 2D cryo-EM classification
[2] = molecular target: Fragment of Fcχ consisting of Cχ3, Cχ4 and χtp (Xenopus laevis); assay: cryo-EM structure
[3] = molecular target: Fragment of Fcχ consisting of Cχ3, Cχ4 and χtp (Xenopus laevis); assay: 2D cryo-EM classification
[4] = molecular target: Human Fcμ variant with the tailpiece truncated to 13 residues (human); assay: native gel or EMSA
[5] = molecular target: Human Fcμ variant with the tailpiece truncated to 13 residues (human); assay: 2D cryo-EM classification
[6] = molecular target: Human Fcμ variant with the tailpiece truncated to 14 residues (human); assay: native gel or EMSA
[7] = molecular target: Human Fcμ variant with the tailpiece truncated to 14 residues (human); assay: 2D cryo-EM classification
[8] = molecular target: Human Fcμ variant with the tailpiece truncated to 15 residues (human); assay: native gel or EMSA
[9] = molecular target: Human Fcμ variant with the tailpiece truncated to 15 residues (human); assay: 2D cryo-EM classification
[10] = molecular target: Human Fcμ variant with the tailpiece truncated to 16 residues (human); assay: native gel or EMSA
[11] = molecular target: Human Fcμ variant with the tailpiece truncated to 16 residues (human); assay: 2D cryo-EM classification
[12] = molecular target: Human Fcμ variant with the tailpiece truncated to 17 residues (human); assay: 2D cryo-EM classification
[13] = molecular target: Recombinant human Fcμ with an intact 18-amino acid tailpiece (human); assay: AUC
[14] = molecular target: Recombinant human Fcμ with an intact 18-amino acid tailpiece (human); assay: 2D cryo-EM classification
[15] = molecular target: the molecule itself; assay: 2D cryo-EM classification
[16] = molecular target: the molecule itself; assay: AUC

Molecule: Fc region of the Xenopus laevis IgX heavy chain (Cχ2, Cχ3, Cχ4 and χtp) (domain or fragment)
- stoichiometry N [1]: 6

Molecule: Fragment of Fcχ consisting of Cχ3, Cχ4 and χtp (domain or fragment)
- stoichiometry N [2]: 6
- stoichiometry N [3]: 6

Molecule: Human Fcμ variant with the tailpiece truncated to 13 residues (domain or fragment)
- stoichiometry N [4]: 6
- stoichiometry N [5]: 6

Molecule: Human Fcμ variant with the tailpiece truncated to 14 residues (domain or fragment)
- stoichiometry N [6]: 6
- stoichiometry N [7]: 6

Molecule: Human Fcμ variant with the tailpiece truncated to 15 residues (domain or fragment)
- stoichiometry N [8]: 6
- stoichiometry N [9]: 6

Molecule: Human Fcμ variant with the tailpiece truncated to 16 residues (domain or fragment)
- stoichiometry N [10]: 6
- stoichiometry N [11]: 6

Molecule: Human Fcμ variant with the tailpiece truncated to 17 residues (domain or fragment)
- stoichiometry N [12]: 6 and 5

Molecule: Recombinant human Fcμ with an intact 18-amino acid tailpiece (domain or fragment)
- stoichiometry N [13]: 4 and 5 and 6
- stoichiometry N [14]: 6 and 4 and 5

B1: Human Fcμ variant with the tailpiece truncated to 10 residues (domain or fragment)
chain: IAELPPKVSVFVPPRDGFFGNPRKSKLICQATGFSPRQIQVSWLREGKQVGSGVTTDQVQAEAKESGPTTYKVTSTLTIKESDWLGQSMFTCRVDHRGLTFQQNASSMCVPDQDTAIRVFAIPPSFASIFLTKSTKLTCLVTDLTTYDSVTISWTRQNGEAVKTHTNISESHPNATFSAVGEASICEDDWNSGERFTCTVTHTDLPSPLKQTISRPKGVALHRPDVYLLPPAREQLNLRESATITCLVTGFSPADVFVQWMQRGQPLSPEKYVTSAPMPEPQAPGRYFAHSILTVSEEEWNTGETYTCVVAHEALPNRVTERTVDKSTGKPTLYNVSLVM
- stoichiometry N [15]: 6 and 4

B2: Human Fcμ variant with the tailpiece truncated to 11 residues (domain or fragment)
chain: IAELPPKVSVFVPPRDGFFGNPRKSKLICQATGFSPRQIQVSWLREGKQVGSGVTTDQVQAEAKESGPTTYKVTSTLTIKESDWLGQSMFTCRVDHRGLTFQQNASSMCVPDQDTAIRVFAIPPSFASIFLTKSTKLTCLVTDLTTYDSVTISWTRQNGEAVKTHTNISESHPNATFSAVGEASICEDDWNSGERFTCTVTHTDLPSPLKQTISRPKGVALHRPDVYLLPPAREQLNLRESATITCLVTGFSPADVFVQWMQRGQPLSPEKYVTSAPMPEPQAPGRYFAHSILTVSEEEWNTGETYTCVVAHEALPNRVTERTVDKSTGKPTLYNVSLVMS
modifications: glycosylation at Asn563
- stoichiometry N [16]: 6

B3: Human Fcμ variant with the tailpiece truncated to 12 residues (domain or fragment)
chain: IAELPPKVSVFVPPRDGFFGNPRKSKLICQATGFSPRQIQVSWLREGKQVGSGVTTDQVQAEAKESGPTTYKVTSTLTIKESDWLGQSMFTCRVDHRGLTFQQNASSMCVPDQDTAIRVFAIPPSFASIFLTKSTKLTCLVTDLTTYDSVTISWTRQNGEAVKTHTNISESHPNATFSAVGEASICEDDWNSGERFTCTVTHTDLPSPLKQTISRPKGVALHRPDVYLLPPAREQLNLRESATITCLVTGFSPADVFVQWMQRGQPLSPEKYVTSAPMPEPQAPGRYFAHSILTVSEEEWNTGETYTCVVAHEALPNRVTERTVDKSTGKPTLYNVSLVMSD
- stoichiometry N [15]: 6
